Where no end group is shown, it is not given here. [ ]: non-standard residue; d: D form. The star is where a group is joined. C18 fatty acyl = 18 carbon fatty acyl group covalently attached to Lys; Stearoyl = CCCCCCCCCCCCCCCCCC(=O)*; Palmitoyl = CCCCCCCCCCCCCCCC(=O)*; Myristoyl = CCCCCCCCCCCCCC(=O)*; Aib = CC(C)(N)C(=O)O
T1: GIP receptor (UniProt P48546 22-466)
T1 sequence (looked up): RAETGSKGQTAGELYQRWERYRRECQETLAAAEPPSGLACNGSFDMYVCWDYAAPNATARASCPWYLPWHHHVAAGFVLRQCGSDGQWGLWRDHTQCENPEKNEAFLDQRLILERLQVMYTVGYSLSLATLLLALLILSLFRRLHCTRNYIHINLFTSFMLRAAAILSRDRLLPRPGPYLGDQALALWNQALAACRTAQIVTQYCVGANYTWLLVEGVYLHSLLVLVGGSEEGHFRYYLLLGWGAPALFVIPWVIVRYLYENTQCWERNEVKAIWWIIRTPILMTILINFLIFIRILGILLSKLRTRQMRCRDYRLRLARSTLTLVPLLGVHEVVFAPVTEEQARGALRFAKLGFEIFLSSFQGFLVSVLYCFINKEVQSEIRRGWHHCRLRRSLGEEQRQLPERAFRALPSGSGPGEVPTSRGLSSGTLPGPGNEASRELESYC


Tests used:
GIP receptor = target: T1, GIP receptor; experiment: cell-based or functional assay
GLP-1 receptor = GLP-1 receptor (UniProt P43220 24-463, limits assumed); experiment: cell-based or functional assay

Binder | EC50 (GIP receptor) | EC50 (GLP-1 receptor)
Y[Aib]QGTFTSDYSIYLDKQAA[Aib]EFVNWLLAGGPSSGAPPPSK(Myristoyl)-NH2 (N-terminus assumed; SMILES CCCCCCCCCCCCCC(=O)NCCCC[C@H](NC(=O)[C@H](CO)NC(=O)[C@@H]1CCCN1C(=O)[C@@H]1CCCN1C(=O)[C@@H]1CCCN1C(=O)[C@H](C)NC(=O)CNC(=O)[C@H](CO)NC(=O)[C@H](CO)NC(=O)[C@@H]1CCCN1C(=O)CNC(=O)CNC(=O)[C@H](C)NC(=O)[C@H](CC(C)C)NC(=O)[C@H](CC(C)C)NC(=O)[C@H](Cc1c[nH]c2ccccc12)NC(=O)[C@H](CC(N)=O)NC(=O)[C@@H](NC(=O)[C@H](Cc1ccccc1)NC(=O)[C@H](CCC(=O)O)NC(=O)C(C)(C)NC(=O)[C@H](C)NC(=O)[C@H](C)NC(=O)[C@H](CCC(N)=O)NC(=O)[C@H](CCCCN)NC(=O)[C@H](CC(=O)O)NC(=O)[C@H](CC(C)C)NC(=O)[C@H](Cc1ccc(O)cc1)NC(=O)[C@@H](NC(=O)[C@H](CO)NC(=O)[C@H](Cc1ccc(O)cc1)NC(=O)[C@H](CC(=O)O)NC(=O)[C@H](CO)NC(=O)[C@@H](NC(=O)[C@H](Cc1ccccc1)NC(=O)[C@@H](NC(=O)CNC(=O)[C@H](CCC(N)=O)NC(=O)C(C)(C)NC(=O)[C@@H](N)Cc1ccc(O)cc1)[C@@H](C)O)[C@@H](C)O)[C@@H](C)CC)C(C)C)C(N)=O) [mt-277] | 5.2 pM | 0.0086 nM
Y[Aib]QGTFTSDYSIYLDKQAA[Aib]EFVNWLLAGGPSSGAPPPSK(Palmitoyl)-NH2 (N-terminus assumed; SMILES CCCCCCCCCCCCCCCC(=O)NCCCC[C@H](NC(=O)[C@H](CO)NC(=O)[C@@H]1CCCN1C(=O)[C@@H]1CCCN1C(=O)[C@@H]1CCCN1C(=O)[C@H](C)NC(=O)CNC(=O)[C@H](CO)NC(=O)[C@H](CO)NC(=O)[C@@H]1CCCN1C(=O)CNC(=O)CNC(=O)[C@H](C)NC(=O)[C@H](CC(C)C)NC(=O)[C@H](CC(C)C)NC(=O)[C@H](Cc1c[nH]c2ccccc12)NC(=O)[C@H](CC(N)=O)NC(=O)[C@@H](NC(=O)[C@H](Cc1ccccc1)NC(=O)[C@H](CCC(=O)O)NC(=O)C(C)(C)NC(=O)[C@H](C)NC(=O)[C@H](C)NC(=O)[C@H](CCC(N)=O)NC(=O)[C@H](CCCCN)NC(=O)[C@H](CC(=O)O)NC(=O)[C@H](CC(C)C)NC(=O)[C@H](Cc1ccc(O)cc1)NC(=O)[C@@H](NC(=O)[C@H](CO)NC(=O)[C@H](Cc1ccc(O)cc1)NC(=O)[C@H](CC(=O)O)NC(=O)[C@H](CO)NC(=O)[C@@H](NC(=O)[C@H](Cc1ccccc1)NC(=O)[C@@H](NC(=O)CNC(=O)[C@H](CCC(N)=O)NC(=O)C(C)(C)NC(=O)[C@@H](N)Cc1ccc(O)cc1)[C@@H](C)O)[C@@H](C)O)[C@@H](C)CC)C(C)C)C(N)=O) [mt-278] | 2.8 pM | 0.0042 nM
Y[Aib]QGTFTSDYSIYLDKQAA[Aib]EFVNWLLAGGPSSGAPPPSK(Stearoyl)-NH2 (N-terminus assumed; SMILES CCCCCCCCCCCCCCCCCC(=O)NCCCC[C@H](NC(=O)[C@H](CO)NC(=O)[C@@H]1CCCN1C(=O)[C@@H]1CCCN1C(=O)[C@@H]1CCCN1C(=O)[C@H](C)NC(=O)CNC(=O)[C@H](CO)NC(=O)[C@H](CO)NC(=O)[C@@H]1CCCN1C(=O)CNC(=O)CNC(=O)[C@H](C)NC(=O)[C@H](CC(C)C)NC(=O)[C@H](CC(C)C)NC(=O)[C@H](Cc1c[nH]c2ccccc12)NC(=O)[C@H](CC(N)=O)NC(=O)[C@@H](NC(=O)[C@H](Cc1ccccc1)NC(=O)[C@H](CCC(=O)O)NC(=O)C(C)(C)NC(=O)[C@H](C)NC(=O)[C@H](C)NC(=O)[C@H](CCC(N)=O)NC(=O)[C@H](CCCCN)NC(=O)[C@H](CC(=O)O)NC(=O)[C@H](CC(C)C)NC(=O)[C@H](Cc1ccc(O)cc1)NC(=O)[C@@H](NC(=O)[C@H](CO)NC(=O)[C@H](Cc1ccc(O)cc1)NC(=O)[C@H](CC(=O)O)NC(=O)[C@H](CO)NC(=O)[C@@H](NC(=O)[C@H](Cc1ccccc1)NC(=O)[C@@H](NC(=O)CNC(=O)[C@H](CCC(N)=O)NC(=O)C(C)(C)NC(=O)[C@@H](N)Cc1ccc(O)cc1)[C@@H](C)O)[C@@H](C)O)[C@@H](C)CC)C(C)C)C(N)=O) [mt-279] | 4.5 pM | 0.0046 nM
Y[Aib]EGTFTSDYSIYLDKQAA[Aib]EFVCWLLAGGPSSGAPPPSK(Palmitoyl)-NH2 (N-terminus assumed; SMILES CCCCCCCCCCCCCCCC(=O)NCCCC[C@H](NC(=O)[C@H](CO)NC(=O)[C@@H]1CCCN1C(=O)[C@@H]1CCCN1C(=O)[C@@H]1CCCN1C(=O)[C@H](C)NC(=O)CNC(=O)[C@H](CO)NC(=O)[C@H](CO)NC(=O)[C@@H]1CCCN1C(=O)CNC(=O)CNC(=O)[C@H](C)NC(=O)[C@H](CC(C)C)NC(=O)[C@H](CC(C)C)NC(=O)[C@H](Cc1c[nH]c2ccccc12)NC(=O)[C@H](CS)NC(=O)[C@@H](NC(=O)[C@H](Cc1ccccc1)NC(=O)[C@H](CCC(=O)O)NC(=O)C(C)(C)NC(=O)[C@H](C)NC(=O)[C@H](C)NC(=O)[C@H](CCC(N)=O)NC(=O)[C@H](CCCCN)NC(=O)[C@H](CC(=O)O)NC(=O)[C@H](CC(C)C)NC(=O)[C@H](Cc1ccc(O)cc1)NC(=O)[C@@H](NC(=O)[C@H](CO)NC(=O)[C@H](Cc1ccc(O)cc1)NC(=O)[C@H](CC(=O)O)NC(=O)[C@H](CO)NC(=O)[C@@H](NC(=O)[C@H](Cc1ccccc1)NC(=O)[C@@H](NC(=O)CNC(=O)[C@H](CCC(=O)O)NC(=O)C(C)(C)NC(=O)[C@@H](N)Cc1ccc(O)cc1)[C@@H](C)O)[C@@H](C)O)[C@@H](C)CC)C(C)C)C(N)=O) [mt-296] | 7.7 pM | 0.0124 nM
Y[Aib]EGTFTSDYSIYLDKQAA[Aib]EFVCWLLAGGPSSGAPPPSK(Myristoyl)-NH2 (N-terminus assumed; SMILES CCCCCCCCCCCCCC(=O)NCCCC[C@H](NC(=O)[C@H](CO)NC(=O)[C@@H]1CCCN1C(=O)[C@@H]1CCCN1C(=O)[C@@H]1CCCN1C(=O)[C@H](C)NC(=O)CNC(=O)[C@H](CO)NC(=O)[C@H](CO)NC(=O)[C@@H]1CCCN1C(=O)CNC(=O)CNC(=O)[C@H](C)NC(=O)[C@H](CC(C)C)NC(=O)[C@H](CC(C)C)NC(=O)[C@H](Cc1c[nH]c2ccccc12)NC(=O)[C@H](CS)NC(=O)[C@@H](NC(=O)[C@H](Cc1ccccc1)NC(=O)[C@H](CCC(=O)O)NC(=O)C(C)(C)NC(=O)[C@H](C)NC(=O)[C@H](C)NC(=O)[C@H](CCC(N)=O)NC(=O)[C@H](CCCCN)NC(=O)[C@H](CC(=O)O)NC(=O)[C@H](CC(C)C)NC(=O)[C@H](Cc1ccc(O)cc1)NC(=O)[C@@H](NC(=O)[C@H](CO)NC(=O)[C@H](Cc1ccc(O)cc1)NC(=O)[C@H](CC(=O)O)NC(=O)[C@H](CO)NC(=O)[C@@H](NC(=O)[C@H](Cc1ccccc1)NC(=O)[C@@H](NC(=O)CNC(=O)[C@H](CCC(=O)O)NC(=O)C(C)(C)NC(=O)[C@@H](N)Cc1ccc(O)cc1)[C@@H](C)O)[C@@H](C)O)[C@@H](C)CC)C(C)C)C(N)=O) [mt-306] | 6.4 pM | 0.0201 nM
Y[Aib]EGTFTSDYSIYLDKQAA[Aib]EFVCWLLAGGPSSGAPPPSK(C18 fatty acyl)-NH2 [mt-307] | 12.7 pM | 0.0143 nM

— patent US20110166062A1 (INDIANA UNIVERSITY RESEARCH AND TECHNOLOGY, published 2011)
